From PMC6298731, “Functional and structural similarity of human DNA primase [4Fe4S] cluster domain constructs”

T1: p58C272-464 (DNA primase regulatory subunit C-terminal domain) (human, UniProt P49643 272-464)
T1 sequence: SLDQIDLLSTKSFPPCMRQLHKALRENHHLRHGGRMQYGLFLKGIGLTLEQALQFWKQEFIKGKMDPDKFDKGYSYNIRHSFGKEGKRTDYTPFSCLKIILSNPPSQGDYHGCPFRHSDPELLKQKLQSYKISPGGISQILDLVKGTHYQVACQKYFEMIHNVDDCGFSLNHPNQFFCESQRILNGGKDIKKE

T2: p58C266-464 (DNA primase regulatory subunit C-terminal domain) (human, UniProt P49643 266-464)
T2 sequence: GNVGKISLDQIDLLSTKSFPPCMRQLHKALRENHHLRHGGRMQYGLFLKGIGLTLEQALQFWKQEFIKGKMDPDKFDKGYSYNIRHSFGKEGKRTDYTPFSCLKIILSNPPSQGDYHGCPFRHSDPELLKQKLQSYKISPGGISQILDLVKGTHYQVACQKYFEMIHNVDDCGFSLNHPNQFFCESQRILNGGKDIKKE

B1: MST/FI substrate: 8 nt RNA-primed 18 nt DNA template (DNA:RNA)
RNA: GGCUCGGA
DNA: AAACTCCGAGCCAACATA
modifications: 5'-triphosphate on RNA primer
B2: FA substrate: 12 nt RNA-primed 22 nt DNA template (DNA:RNA)
RNA: GGACCUCCAGGA
DNA: AAACTCCTGGAGGTCCAACATA
modifications: 5'-triphosphate on RNA primer (RNA printed with T as S5; written here with U)

Key:
[1] = molecular target: T1, p58C272-464 (DNA primase regulatory …); assay: fluorescence intensity (Monolith MST instrument); 20 mM MES pH 6.5, 50 mM NaCl, 2 mM DTT (plus 0.05% Tween for FI), 50 nM substrate, 25 C; 15 min incubation at room temperature; conditions: protein: recombinant; tags: 6xHis tag cleaved with H3C protease; label: 5'-Cy5 on DNA template; 8 bp RNA-DNA hybrid; template 5' overhang 4 nt and 3' overhang 6 nt
[2] = molecular target: T2, p58C266-464 (DNA primase regulatory …); assay: as above; conditions: protein: recombinant; tags: 6xHis tag cleaved with H3C protease; label: 5'-Cy5 on DNA template; 8 bp RNA-DNA hybrid; template 5' overhang 4 nt and 3' overhang 6 nt
[3] = molecular target: T1, p58C272-464 (DNA primase regulatory …); assay: fluorescence anisotropy; 20 mM MES pH 6.5, 50 mM NaCl, 2 mM DTT (plus 0.05% Tween for FI), 50 nM substrate, 25 C; 15 min incubation at room temperature; conditions: protein: recombinant; tags: 6xHis tag cleaved with H3C protease; label: 5'-6FAM on DNA template (S4 Dataset says FITC); 12 bp RNA-DNA hybrid; template 5' overhang 4 nt and 3' overhang 6 nt
[4] = molecular target: T2, p58C266-464 (DNA primase regulatory …); assay: as above; conditions: protein: recombinant; tags: 6xHis tag cleaved with H3C protease; label: 5'-6FAM on DNA template (S4 Dataset says FITC); 12 bp RNA-DNA hybrid; template 5' overhang 4 nt and 3' overhang 6 nt

| Binder | Kd [1] | Kd [2] | Kd [3] | Kd [4] |
| --- | --- | --- | --- | --- |
| B1 | 2.7 ± 0.3 µM | 3.4 ± 0.5 µM | – | – |
| B2 | – | – | 3.6 ± 0.1 µM | 2.1 ± 0.1 µM |
